Values quoted from earlier work as cited in publication PMC3386632.

Target: integrin αIIbβ3 (Homo sapiens) (UniProt P08514)

Substance: disagregin (from UniProt P36235)
- Kd: 40 nM
